Ends that are not written are not given here.
T1: Human PPARδ-LBD (amino acids 170–441) (human, UniProt Q03181 170-441)
T1 sequence (looked up): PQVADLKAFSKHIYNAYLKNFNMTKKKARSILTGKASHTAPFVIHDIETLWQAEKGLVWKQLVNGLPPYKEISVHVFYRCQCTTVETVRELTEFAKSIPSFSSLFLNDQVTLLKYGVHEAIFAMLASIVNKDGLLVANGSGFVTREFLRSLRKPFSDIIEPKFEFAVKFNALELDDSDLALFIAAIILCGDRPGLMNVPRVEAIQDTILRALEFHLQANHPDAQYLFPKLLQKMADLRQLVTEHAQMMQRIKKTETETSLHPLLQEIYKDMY

T2: Human PPARα-LBD (amino acids 200–468) (human, UniProt Q07869 200-468)
T2 construct: source: delipidized with ethanol
T2 sequence (looked up): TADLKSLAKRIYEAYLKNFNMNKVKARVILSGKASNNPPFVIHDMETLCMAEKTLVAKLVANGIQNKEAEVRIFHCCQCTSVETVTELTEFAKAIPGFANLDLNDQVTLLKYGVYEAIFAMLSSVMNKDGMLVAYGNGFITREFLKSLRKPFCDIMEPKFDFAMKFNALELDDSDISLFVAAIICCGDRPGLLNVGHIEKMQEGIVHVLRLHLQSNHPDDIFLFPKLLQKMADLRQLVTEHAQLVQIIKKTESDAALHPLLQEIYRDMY

T3: Human PPARγ-LBD (isoform 1; amino acids 203–477) (human, UniProt P37231-2 203-477)
T3 construct: numbers count on: isoform 1
T3 sequence (looked up): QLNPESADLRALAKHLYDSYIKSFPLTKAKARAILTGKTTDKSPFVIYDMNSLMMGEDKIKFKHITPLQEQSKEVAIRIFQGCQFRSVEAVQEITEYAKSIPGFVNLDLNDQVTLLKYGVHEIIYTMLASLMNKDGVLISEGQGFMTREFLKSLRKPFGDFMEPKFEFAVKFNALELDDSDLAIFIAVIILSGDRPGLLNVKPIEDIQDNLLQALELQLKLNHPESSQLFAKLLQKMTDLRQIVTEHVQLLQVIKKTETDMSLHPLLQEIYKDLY

B1: TRAP220 coactivator peptide, AAs 631–655 (peptide)
peptide: PVSSMAGNTKNHPMLMNLLKDNPAQ
modifications: also: biotin-labeled, position not given here
notes: Thyroid hormone receptor-associated protein 220, amino acids 631-655, holds an LXXLL motif (LMNLL); also called thyroid hormone receptor-associated protein 220 peptide; source: synthetic peptide (GenScript)

What was measured:
Conditions in all cases: both partners purified
[1] = biological target: T1, Human PPARδ-LBD (amino acids 170–441); test: FRET or BRET; same cell-free TR-FRET coactivator recruitment; with approved drug (pemafibrate for PPARα, seladelpar for PPARδ, pioglitazone for PPARγ), concentration series; response as percent of the maximal response with 1 µM GW full agonist
[2] = biological target: T2, Human PPARα-LBD (amino acids 200–468); test: as above
[3] = biological target: T3, Human PPARγ-LBD (isoform 1; amino acids …); test: as above
[4] = biological target: T3, Human PPARγ-LBD (isoform 1; amino acids …); test: FRET or BRET; cell-free TR-FRET coactivator recruitment; 6×His-LBD (9.5 µL of 400 nM) with Eu-W1024 anti-6×His antibody, biotin-labeled peptide (5 µL of 1 µM) with ULight-streptavidin; Buffer A (20 mM HEPES-NaOH pH 7.4, 150 mM NaCl, 1 mM EDTA, 0.005% Tween 20, 0.2% FA-free BSA); room temperature, 2 h; with synthetic full agonist (GW7647 for PPARα, GW501516 for PPARδ, GW1929 for PPARγ), concentration series; 665/620 …

Row | Binder | binding result [1] | binding result [2] | binding result [3] | binding result [4]
1 | CPSSHSSLTERHKILHRLLQEGSPS (also: biotin-labeled, position not given here, source: synthetic peptide (GenScript)) [SRC1 coactivator peptide, AAs 676–700] | binds | binds | – | –
2 | SGNLVPDAASKHKQLSELLRGGSGS (also: biotin-labeled, position not given here, source: synthetic peptide (GenScript)) [CBP coactivator peptide, AAs 56–80] | binds | binds | binds | –
3 | B1 | binds | binds | – | binds
4 | EAEEPSLLKKLLLAPANTQ (also: biotin-labeled, position not given here, source: synthetic peptide (GenScript)) [PGC1α coactivator peptide, AAs 137–155] | binds | – | – | –

From PMC12732646, “Peroxisome Proliferator-Activated Receptor α/δ/γ Activation Profile by Endogenous Long-Chain Fatty Acids” (International Journal of Molecular Sciences, 2025)
